Assay results as given in patent US20240181006A1, “POLYPEPTIDES BINDING ADAMTS5, MMP13 AND AGGRECAN” (Merck Patent GmbH, priority 2017, published 2024).

Key:
human ADAMTS5 = biological target: T1, human ADAMTS5 (Homo sapiens, UniProt Q9UNA0); test: AlphaLISA based human ADAMTS5 assay; type: biochemical
T1 sequence (Q9UNA0 262-930): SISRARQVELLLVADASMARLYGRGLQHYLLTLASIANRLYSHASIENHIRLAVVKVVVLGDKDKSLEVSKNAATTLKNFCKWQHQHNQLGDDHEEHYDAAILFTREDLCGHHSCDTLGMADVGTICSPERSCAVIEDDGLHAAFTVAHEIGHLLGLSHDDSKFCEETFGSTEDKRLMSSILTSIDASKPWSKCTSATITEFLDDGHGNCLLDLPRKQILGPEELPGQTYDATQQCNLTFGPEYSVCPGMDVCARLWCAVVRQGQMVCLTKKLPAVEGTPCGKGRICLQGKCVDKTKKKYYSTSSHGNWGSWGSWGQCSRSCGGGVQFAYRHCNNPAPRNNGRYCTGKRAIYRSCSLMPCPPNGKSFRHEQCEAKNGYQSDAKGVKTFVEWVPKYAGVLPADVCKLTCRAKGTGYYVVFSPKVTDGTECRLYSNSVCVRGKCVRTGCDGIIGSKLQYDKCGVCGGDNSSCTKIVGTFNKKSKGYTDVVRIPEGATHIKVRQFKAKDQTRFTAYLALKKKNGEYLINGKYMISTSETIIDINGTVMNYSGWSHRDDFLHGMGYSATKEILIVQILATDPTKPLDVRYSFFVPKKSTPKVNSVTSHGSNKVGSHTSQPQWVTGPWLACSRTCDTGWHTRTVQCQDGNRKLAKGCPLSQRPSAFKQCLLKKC
Experimental: In short, a periplasmic extract of ISVD 02F03 was tested for binding to recombinant human ADAMTS5 by binding ELISA. Next, it was confirmed that ISVD 02F03 was able to prevent ADAMTS5-mediated cleavage of Aggrecan in a FRET-based human ADAMTS5 enzymatic assay. Next to the FRET-based assay, an AlphaLISA (Perkin Elmer, Waltham, MA, US) based human ADAMTS5 assay with a biotinylated 43-mer Aggrecan oligopeptide as substrate was performed. Upon ADAMTS5 cleavage of this substrate, a biotinylated ARGSV neo-epitope product is released and can be detected by streptavidin-AlphaScreen donor beads and an α-neo-epitope (“ARGSV”) antibody captured on anti-mouse IgG-coated AlphaLISA acceptor beads, resulting in the generation of a luminescence AlphaScreen signal upon laser excitation. To determine the ability of ISVD 02F03 to prevent ADAMTS5-mediated cleavage of the substrate, the decrease in signal was analysed in function of ISVD 02F03 concentration and IC50 values were calculated.

[1] = system: bovine cartilage explant chips; test: bovine cartilage explant assay, IL-1α induced GAG release (02F03); type: cell-based
Experimental: In addition, ISVD 02F03 was further evaluated for its ability to block cartilage degradation in an ex vivo assay, in which the substrate is presented in a condition closer to the physiological condition compared to biochemical assays. In brief, bovine cartilage explant chips (diameter 4 mm) were prepared freshly from cow knee joints and incubated in 96-well plates in presence of IL-1α to induce cartilage degradation. As a measure of cartilage/Aggrecan degradation, the release of glycosaminoglycan (GAG) was detected in the supernatant after 5 days of incubation (37° C., 7.5% C02) via the metachromatic dye 1,9 dimethylmethylene blue ([…] at 633 nm). Chondroitin sulphate was included as assay standard. Efficacy was defined by means of the IL-1α-induced controls without compound (0%) and in presence of MSC2310852A (100% effect).

human MMP14 = human MMP14 (Homo sapiens, UniProt P50281); test: FRET-based human MMP14 assay (selectivity of 02F03); type: biochemical; conditions: data not shown
Experimental: (§1) To confirm the selectivity of ISVD 02F03 for ADAMTS5, inhibition of the enzymatic activity of MMP1, MMP14 and ADAMTS4 was evaluated via FRET-based assays and a human ADAMTS4 AlphaLISA, with the respective enzymes.
Activated human MMP1 or MMP14 was incubated for 30 minutes at room temperature with 10 μl of dilution series of ISVD 02F03. After incubation, 20 μl of respectively 5 μM or 2.5 μM fluorogenic peptide substrate (Mca-PLGL-Dpa-AR-NH2 Fluorogenic MMP Substrate (R&D Systems cat #ES001)) was added. The ability of ISVD 02F03 to prevent MMP1- and MMP14-mediated cleavage was monitored every minute for 2 hours at 37° C. on a Tecan Infinite M1000 plate reader.

human ADAMTS4 = biological target: T2, human ADAMTS4 (Homo sapiens, UniProt O75173); test: human ADAMTS4 AlphaLISA; type: biochemical; conditions: data not shown
T2 construct: purchased R&D Systems 4307-AD
T2 sequence (O75173 213-837): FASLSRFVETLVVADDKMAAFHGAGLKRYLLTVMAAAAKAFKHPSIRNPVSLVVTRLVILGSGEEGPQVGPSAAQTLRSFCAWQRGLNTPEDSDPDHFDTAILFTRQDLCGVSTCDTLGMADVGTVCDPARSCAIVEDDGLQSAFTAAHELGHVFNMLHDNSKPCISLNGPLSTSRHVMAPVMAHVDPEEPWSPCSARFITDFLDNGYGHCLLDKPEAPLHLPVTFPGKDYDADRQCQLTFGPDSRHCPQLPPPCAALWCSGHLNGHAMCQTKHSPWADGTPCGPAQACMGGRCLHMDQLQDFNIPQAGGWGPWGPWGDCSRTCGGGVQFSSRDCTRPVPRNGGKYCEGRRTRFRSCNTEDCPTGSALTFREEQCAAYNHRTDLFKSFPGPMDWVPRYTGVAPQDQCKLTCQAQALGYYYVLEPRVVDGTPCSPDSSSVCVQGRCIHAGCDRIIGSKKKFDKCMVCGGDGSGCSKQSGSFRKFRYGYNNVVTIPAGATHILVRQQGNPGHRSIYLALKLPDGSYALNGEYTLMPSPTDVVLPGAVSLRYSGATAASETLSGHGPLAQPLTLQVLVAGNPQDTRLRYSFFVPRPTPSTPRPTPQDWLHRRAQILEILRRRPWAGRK
Experimental: as §1
To evaluate inhibition of human ADAMTS4, an assay similar to the human ADAMTS5 AlphaLISA was carried out, essentially as described in Example 2.1, but using human ADAMTS4 (R&D Systems, Minneapolis, US; cat #4307-AD). To determine the ability of ISVD 02F03 to prevent human ADAMTS4-mediated cleavage of the substrate, the decrease in signal was analysed in function of ISVD 02F03 concentration and IC50 values were calculated.

Human AlphaLISA % inhibition (human ADAMTS5): 100%
inhibition of MMP14 activity (human MMP14): did not show any inhibition
inhibition of human ADAMTS4 activity (human ADAMTS4): did not show any inhibitory activity
B1: ISVD 02F03: immunoglobulin single variable domain which specifically binds ADAMTS5 (protein)
VHH: EVQLVESGGGVVQPGGSLRLSCAASGRTVSSYAMGWFRQAPGKEREFVAGISRSAERTYYVDSLKGRFTISRDNSKNTVYLQMNSLRPEDTALYYCAADLDPNRIFSREEYAYWGQGTLVTVSS
modifications: Description of Artificial Sequence: Synthetic anti-ADAMTS5 immunoglobulin single variable domain (ISVD)
IC50 ([1]; IL-1α, GAG release after 5 days): 14 nM
IC50 times lower than mAb 12F4 in bovine explant assay ([1]; versus bivalent mAb 12F4): about 50 times
